Assays:
His-tagged PaMurA = molecular target: T1, His-tagged PaMurA (P. aeruginosa, UniProt Q9HVW7 1-421); assay: […] (1:1), 25 mM Tris pH 8.0, 150 mM NaCl, 10% glycerol, 1 mM DTT, […]; conditions: both partners purified
T1 construct: MurA of Pseudomonas aeruginosa PAO1; UniProt Q9HVW7 is printed for the covariation analysis; also called H–PaMurA; H–PaMurA(WT); source: purified (details in the Supplementary Information)

H–PaMurA(E406K) = molecular target: T2, H–PaMurA(E406K) (P. aeruginosa, UniProt Q9HVW7 1-421, E406K); assay: as above; conditions: both partners purified
T2 construct: source: purified (details in the Supplementary Information)

B1: Flag-tagged PaLpxC (enzyme)
chain: MIKQRTLKNIIRATGVGLHSGEKVYLTLKPAPVDTGIVFCRTDLDPVVEIPARAENVGETTMSTTLVKGDVKVDTVEHLLSAMAGLGIDNAYVELSASEVPIMDGSAGPFVFLIQSAGLQEQEAAKKFIRIKREVSVEEGDKRAVFVPFDGFKVSFEIDFDHPVFRGRTQQASVDFSSTSFVKEVSRARTFGFMRDIEYLRSQNLALGGSVENAIVVDENRVLNEDGLRYEDEFVKHKILDAIGDLYLLGNSLIGEFRGFKSGHALNNQLLRTLIADKDAWEVVTFEDARTAPISYMRPAAAV
notes: LpxC of Pseudomonas aeruginosa PAO1; UniProt P47205 is printed for the covariation analysis; also called F–PaLpxC; F–LpxC; source: purified (details in the Supplementary Information)
binding result (His-tagged PaMurA): binds | binding result (H–PaMurA(E406K)): binds

Reference: paper PMC9995270 (Nature, 2023)
